Data reported in patent US20250011363A1, “OPTIMIZED SHORTENED PEPTIDE THAT BINDS TO ACETYLCHOLINE RECEPTOR, AND USE THEREOF” (SKINMED CO., LTD., priority 2021, published 2025).

Molecular target: acetylcholine receptor (Homo sapiens, UniProt P02708)
Assay: SPR binding affinity (RU) of optimized 5mer/6mer/7mer peptides, Examples 6-7
Settings: 6mer-1 Top sequence; SPR; peptides tested at 10 μM
Method in brief: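 Single-concentration screen: 10 μM peptide, SPR detection, binding expressed as RU.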

Chain of acetylcholine receptor (P02708 21-457): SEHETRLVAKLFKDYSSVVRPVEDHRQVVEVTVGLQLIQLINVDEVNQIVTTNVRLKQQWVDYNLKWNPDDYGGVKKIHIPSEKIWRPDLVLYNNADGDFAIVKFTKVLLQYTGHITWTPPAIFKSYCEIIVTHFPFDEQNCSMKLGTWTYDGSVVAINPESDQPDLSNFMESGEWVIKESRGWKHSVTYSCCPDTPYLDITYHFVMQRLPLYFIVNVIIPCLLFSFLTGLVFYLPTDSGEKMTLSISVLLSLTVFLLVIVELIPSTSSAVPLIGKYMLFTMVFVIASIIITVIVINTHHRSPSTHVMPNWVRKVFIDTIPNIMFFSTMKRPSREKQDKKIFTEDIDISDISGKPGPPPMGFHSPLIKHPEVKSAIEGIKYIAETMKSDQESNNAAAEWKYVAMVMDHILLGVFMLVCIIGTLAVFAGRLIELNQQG

Substance	Binding affinity [Ru]
6mer-1-216 (RKSIQR)	148
6mer-1-402 (RRRVLR)	153
6mer-1-304 (RKLYSR)	121
6mer-1-248 (RRLIYK)	151
6mer-1-285 (KRWVQR)	122

Same assay, conditions: 6mer-2 Top sequence; SPR; peptides tested at 10 μM

Substance	Binding affinity [Ru]
6mer-2-77 (KQQTRR)	123
6mer-2-177 (RSVTKK)	136
6mer-2-28 (KVLSRK)	142
6mer-2-148 (KGQYKK)	145
6mer-2-179 (RRVYRR)	121

Same assay, conditions: SPR, Resonance Units; 5mer Bottom sequence (bottom combinations); peptides tested at 10 μM

Substance	Binding affinity [Ru]
5mer-735 (RHCER)	11
5mer-1030 (RISDK)	18
5mer-930 (RAWVR)	20
5mer-697 (KASKK)	25
5mer-799 (KDKPR)	24
5mer-1084 (RTHDR)	21
5mer-918 (RNNVR)	12
5mer-614 (RNTWK)	29
5mer-975 (RFAHK)	18
5mer-706 (RKMAK)	27
5mer-948 (KDSFK)	18
5mer-993 (KEKFR)	27

Same assay, conditions: SPR, Resonance Units; peptides tested at 10 μM; 6mer-1 Bottom sequence

Substance	Binding affinity [Ru]
6mer-1-998 (KRNPVK)	41
6mer-1-1100 (KRMSHK)	43
6mer-1-1185 (KKEMMK)	29
6mer-1-1164 (KKHHAK)	41
6mer-1-1163 (RKCAFK)	21
6mer-1-1175 (RKTWEK)	23
6mer-1-1157 (RKESVR)	36
6mer-1-1172 (RRFNFR)	23
6mer-1-1111 (RRASPR)	38

Same assay, conditions: SPR, Resonance Units; peptides tested at 10 μM; 6mer-1 Bottom sequence (Table 11)

Substance	Binding affinity [Ru]
6mer-1-620 (RRKTAK)	11
6mer-1-705 (KRTEWR)	12
6mer-1-608 (KKACMR)	18
6mer-1-792 (KRKDKK)	30
6mer-1-625 (KREDKK)	33
6mer-1-641 (RREMFK)	21
6mer-1-744 (RKHEIK)	31
6mer-1-734 (RRTHER)	21

Same assay, conditions: SPR, Resonance Units; peptides tested at 10 μM; 6mer-2 Bottom sequence

Substance	Binding affinity [Ru]
6mer-2-775 (KMSMKK)	26
6mer-2-968 (RHWEKK)	39
6mer-2-986 (KNWARR)	27
6mer-2-976 (RTTGKK)	26
6mer-2-898 (KKKDKK)	16
6mer-2-645 (RIKVKK)	15
6mer-2-900 (RFSAKK)	11
6mer-2-904 (KCCFKK)	30
6mer-2-903 (KKNPKK)	40
6mer-2-782 (KPWPKR)	18
6mer-2-936 (KPPAKK)	21
6mer-2-922 (KDNVRR)	41
6mer-2-908 (KYKKKR)	33

Same assay, conditions: SPR, Resonance Units; peptides tested at 10 μM; 6mer-2 Top sequence

Substance	Binding affinity [Ru]
6mer-2-495 (KLLCKK)	121
6mer-2-434 (RVIRRK)	154
6mer-2-473 (RGRLRK)	131
6mer-2-510 (KRVLKK)	146
6mer-2-530 (RSYSKR)	139
6mer-2-498 (KGLCRR)	127
6mer-2-437 (KQVCKK)	121
6mer-2-592 (RWVLRK)	122
6mer-2-584 (KRLTRK)	148
6mer-2-481 (RQRYKK)	131

Same assay, conditions: SPR, Resonance Units; peptides tested at 10 μM; 6mer-2 Top sequence (Table 12)

Substance	Binding affinity [Ru]
6mer-2-268 (RQICKK)	139
6mer-2-373 (KLIYRK)	139
6mer-2-267 (KLYSRR)	141
6mer-2-286 (KRRYKK)	139
6mer-2-378 (KRFQRK)	131
6mer-2-316 (KGIRRR)	139

Same assay, conditions: SPR, peptides at 10 μM; 6mer-2 Bottom sequence

Substance	Binding affinity [Ru]
6mer-2-1095 (KYSMRR)	39
6mer-2-1029 (KEEFKK)	40
6mer-2-1184 (KFWVRR)	22
6mer-2-1135 (RANWKR)	29
6mer-2-1052 (KAPARK)	23
6mer-2-1144 (RFEDRK)	39
6mer-2-1073 (KYSWRK)	24
6mer-2-1002 (RCNDKR)	42
6mer-2-1047 (RHDDKR)	28
6mer-2-1077 (KMTIKK)	34

Same assay, conditions: SPR, peptides tested at 10 μM; 5mer Top sequence

Substance	Binding affinity [Ru]
5mer-495 (KVVTK)	52
5mer-387 (RRILR)	52
5mer-330 (RWQLR)	86
5mer-327 (RVLCR)	86
5mer-444 (KQQYR)	65
5mer-153 (RSIQK)	72
5mer-337 (KGRSR)	67
5mer-363 (KRVRK)	59
5mer-450 (RVIQK)	78
5mer-189 (RLLQK)	65
5mer-157 (KGRCR)	78
5mer-415 (KVFLR)	77

Same assay, conditions: SPR, peptides tested at 10 μM; 5mer Top sequence (top combinations)

Substance	Binding affinity [Ru]
5mer-522 (RLVYR)	78
5mer-267 (KRLLK)	66
5mer-532 (KQICK)	75
5mer-574 (KGFTR)	59
5mer-556 (RVIYK)	52
5mer-576 (RLFRK)	62

Same assay, conditions: SPR, peptides tested at 10 μM; 6mer-1 Bottom sequence (Table 11)

Substance	Binding affinity [Ru]
6mer-1-878 (RRKDNR)	27
6mer-1-905 (RRICER)	36
6mer-1-838 (KRNTWK)	17
6mer-1-855 (RKCDVR)	15
6mer-1-986 (KKAEEK)	22
6mer-1-888 (KKTANK)	33

Same assay, conditions: SPR, peptides tested at 10 μM; 6mer-1 Top sequence

Substance	Binding affinity [Ru]
6mer-1-600 (KRGYCR)	139
6mer-1-592 (RRWLSK)	135
6mer-1-495 (RKGFQR)	126
6mer-1-417 (RKSVCK)	139
6mer-1-434 (KRWVCR)	137
6mer-1-562 (KRSYQR)	148
6mer-1-445 (KRVRLR)	145
6mer-1-501 (KRVLYK)	154
6mer-1-586 (KRVICK)	136

Same assay, conditions: SPR, peptides tested at 10 μM; 6mer-1 Top sequence (top combinations)

Substance	Binding affinity [Ru]
6mer-1-165 (KKWFTK)	148
6mer-1-117 (KRLFTR)	142
6mer-1-67 (RRSYTR)	135
6mer-1-53 (KRVIQR)	123
6mer-1-98 (KRLQCR)	154

Same assay, conditions: SPR; XRRGVRR-7mer and RRGVRRX-7mer

Substance	Binding affinity, values relative to the RRGVRR sequence
3663 (RRGVRRV) [compound 3663]	149

Same assay, conditions: SPR; peptides tested at 10 μM; 5mer Bottom sequence

Substance	Binding affinity [Ru]
5mer-1147 (RDTGK)	16
5mer-889 (KTPGR)	25
5mer-1188 (KPSGK)	30
